Measurements: patent US20090291895A1 (published 2009)

What was measured:
[1] = molecular target: T1, purified recombinant MPV vCCI (monkeypox virus viral CC-chemokine inhibitor, product of MPV ORF-[cha (monkeypox virus, UniProt P0DTM9 17-246)); assay: native PAGE mobility shift (1:1 molar ratio); co-immunoprecipitation
[2] = molecular target: T1, purified recombinant MPV vCCI …; assay: mobility shift assay

B1: purified recombinant 6x-histidine tagged rhesus MIP-1alpha (ligand)
chain: ADTPTSCCFSYISRQIPQNFIADYFETNSQCSKPGVIFLTKRGRQVCADPSKEWVQKYVSDLELSAHHHHHH
notes: also called rhMIP-1α; rhMIP1α
B1: binds [1].

B2: mouse MIP-1alpha (ligand)
chain: APYGADTPTACCFSYSRKIPRQFIVDYFETSSLCSQPGVIFLTKRNRQICADSKETWVQEYITDLELNA
B2: binds [2].

B3: mouse MCP-1 (ligand)
chain: not shown
B3: binds [2].
